Experimental findings from paper PMC4005679, “In vitro assembly and activity of an archaeal CRISPR-Cas type I-A Cascade interference complex” (Nucleic Acids Research, 2014) are described below.

The target of one data set is T1, Cas7 (Thermoproteus tenax Kra1, UniProt G4RJZ1 1-329).
T1 sequence: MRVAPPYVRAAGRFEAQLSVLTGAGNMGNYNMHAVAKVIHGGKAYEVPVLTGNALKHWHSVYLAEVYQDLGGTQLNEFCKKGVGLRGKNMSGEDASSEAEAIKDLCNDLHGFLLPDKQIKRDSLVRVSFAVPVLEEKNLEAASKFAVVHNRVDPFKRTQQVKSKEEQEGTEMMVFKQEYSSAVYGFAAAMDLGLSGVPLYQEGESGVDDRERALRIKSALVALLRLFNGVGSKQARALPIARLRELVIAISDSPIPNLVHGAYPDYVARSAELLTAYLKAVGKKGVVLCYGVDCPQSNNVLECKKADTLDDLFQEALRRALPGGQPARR
Kind of data set: EMSA; 4 uM Cas7, no competitor; nonspecific, similar shift with yeast RNA; 100 mM HEPES/KOH pH 7, 100 mM NaCl, 10 mM beta-mercaptoethanol, 50 ng yeast RNA, 30 min at 70 C (Cascade; 6% native TBE-PAGE); Cas7 alone without yeast RNA at 80 C, agarose gel; 2-4 nM labeled crRNA. Conditions: protein: recombinant; tags: His-SUMO tag cleaved off; label: 5'-32P (EMSA); unlabeled in SEC; single strand.

Data set [1] concerns the target T2, Cas7 purified via a His-SUMO-tagged fusion protein (Thermoproteus tenax, UniProt G4RJZ1 1-329).
T2 construct: Cas7 of the type I-A Cascade of Thermoproteus tenax Kra1 (genome FN869859), full-length protein; also called Cas7-SUMO; monomeric Cas7; source: E. coli BL21-Gold(DE3)Star pRARE, purified (Ni-NTA, SUMO protease, HiTrap Heparin, Superdex 75)
T2 sequence (looked up): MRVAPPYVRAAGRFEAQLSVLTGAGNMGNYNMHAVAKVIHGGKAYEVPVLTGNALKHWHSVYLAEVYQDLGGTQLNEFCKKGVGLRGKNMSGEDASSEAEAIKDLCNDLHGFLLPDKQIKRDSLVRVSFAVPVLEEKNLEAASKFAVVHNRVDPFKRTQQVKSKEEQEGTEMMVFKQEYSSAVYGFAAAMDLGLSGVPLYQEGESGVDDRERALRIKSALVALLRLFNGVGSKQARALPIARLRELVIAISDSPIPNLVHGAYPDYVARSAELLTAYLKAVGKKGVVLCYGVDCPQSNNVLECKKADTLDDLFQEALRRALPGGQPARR
As to the kind of experiment: SEC; six co-refolded Cascade subunits, incubated 30 min at 65°C, Superdex 200 10/300; fractions TCA-precipitated and analysed by SDS-PAGE. Conditions: both partners purified.

Data set [2] concerns the target T3, Cas5a (recombinant, refolded) (Thermoproteus tenax, UniProt G4RJZ2 1-226).
T3 construct: Cas5a of the type I-A Cascade of Thermoproteus tenax Kra1 (genome FN869859)
T3 sequence (looked up): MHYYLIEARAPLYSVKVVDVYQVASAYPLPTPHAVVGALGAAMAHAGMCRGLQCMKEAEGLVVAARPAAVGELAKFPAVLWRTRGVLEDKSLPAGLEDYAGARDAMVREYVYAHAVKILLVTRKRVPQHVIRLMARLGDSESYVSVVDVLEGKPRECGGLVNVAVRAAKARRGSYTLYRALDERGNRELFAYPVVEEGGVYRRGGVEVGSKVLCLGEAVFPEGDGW
The data set is described as above. Conditions: both partners purified.

For data set [3], the target named is T4, Cas8a2 (recombinant, refolded) (Thermoproteus tenax, UniProt G4RJZ5 1-361).
T4 construct: Cas8a2 of the type I-A Cascade of Thermoproteus tenax Kra1 (genome FN869859)
T4 sequence (looked up): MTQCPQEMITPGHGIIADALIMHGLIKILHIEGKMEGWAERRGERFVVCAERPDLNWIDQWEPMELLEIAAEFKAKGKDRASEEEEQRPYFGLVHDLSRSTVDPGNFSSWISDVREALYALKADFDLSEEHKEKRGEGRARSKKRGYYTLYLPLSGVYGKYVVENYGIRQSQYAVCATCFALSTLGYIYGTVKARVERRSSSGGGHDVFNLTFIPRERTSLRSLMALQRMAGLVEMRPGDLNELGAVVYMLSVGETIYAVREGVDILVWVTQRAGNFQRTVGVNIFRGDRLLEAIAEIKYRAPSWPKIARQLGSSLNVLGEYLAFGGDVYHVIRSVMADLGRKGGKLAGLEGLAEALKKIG
The data set is described as above. Conditions: both partners purified.

In the case of AUUGAAAGCGUUGAUGCGGCCGCGACUGGCUGACUCAGCUAUUACGUUGA (ssRNA, 5'-OH from hammerhead cleavage before labeling) [crRNA 5.2], the binding result with Cas7 was “binds”.

B1: Csa5 (recombinant, soluble) (natural protein, Thermoproteus tenax, UniProt G4RJZ0 1-130, looked up)
chain: MESVQLKKEELVERAARSVRPAVHLEMAYDVLDELSRSPEKYPEQLAKLSRIVVKVLNDVEDELEHNPQNEELQKARNRLAAWGGYVAELAKRLEEADDRERIRMVRLFCAMALAPDKLTVELKKLLKGR
notes: Csa5, subunit of the type I-A Cascade of Thermoproteus tenax Kra1 (genome FN869859); source: E. coli Rosetta2(DE3)pLysS, csa5 in pET24a(+), purified (heat precipitation 90°C, Hi Screen Blue FF, MonoQ)
Turning to B1, the binding result in data set [1], in data set [2] and in data set [3] was “binds” each time.
